Biological target: EnvZ(C)(223-289) (Escherichia coli)

**Q.** For EnvZ(C)(290-450) (enzyme), which trans-autophosphorylation of sub-domain A with [gamma-32P]ATP, autoradiography is on record?
**A.** Its trans-autophosphorylation of sub-domain A with [gamma-32P]ATP, autoradiography is 5%.

— patent US6077682
